In patent US20150086562A1 (BIOATLA, published 2015):
One block for each binder: values may come before it.

How the values were obtained:
[1] = target: T1, recombinant CD22 extracellular domain; test: The sheet does not state the method. The column 'KD (nM)' stands beside the confocal data, and the target form is taken from FIGURE 18. FIGURE 18 prints 0.25 for this clone.
T1 construct: Kept apart from m18, which is cell-surface CD22; also called CD22 (analyte in the BIAcore runs); CD22 ECD
Experimental: (§1) BIAcore 3000, GE Healthcare was used to determine binding curves and kinetic parameters. An anti-human Fc (1.8 mg/ml) was diluted to a concentration of 50 ug/ml in NaOAc buffer (10 mM, pH 4.8) and coupled to the carboxymethylated dextran matrix of a CM-5 sensor chip using the manufacturer's amine-coupling chemistry as described in the BIAcore systems manual. Using the surface preparation wizard aiming for 10000RU, the carboxyl groups on the sensor surfaces were first activated with NHS/EDC followed by the addition of the anti-human Fc. The remaining activated groups were blocked by the injection of 1M ethanolamine. Each of the flow cells was coupled individually. Employing these conditions, the four flow cell surfaces containing 7554-9571 RU of anti-human Fc were prepared. In preliminary experiments, it was determine that three injections (15 ul at 30 ul/min) 100 mM H₃PO₄/0.05% CHAPS would efficiently remove the bound immunoglobulin and preserve the binding capacity of the immobilized anti-human Fc.
(§2) Experiments were performed on the BIAcore 3000 at 25° C. and a flow rate of 30 ul/min. […] Using the 1:1 model in BIAevaluation 4.1, both a local fit and global fit was done for both dissociation (kd, [s−1] and association (ka, [M⁻¹s⁻¹]) and the dissociation constant (KD, [M]) calculated (kd/ka).

[2] = target: T1, recombinant CD22 extracellular domain; test: The sheet does not state the method. The column 'KD (nM)' stands beside the confocal data, and the target form is taken from FIGURE 18. FIGURE 18 prints 0.30 for this clone.
Experimental: as §1, §2
Target sequence in this assay (chain, as listed by the source limits assumed): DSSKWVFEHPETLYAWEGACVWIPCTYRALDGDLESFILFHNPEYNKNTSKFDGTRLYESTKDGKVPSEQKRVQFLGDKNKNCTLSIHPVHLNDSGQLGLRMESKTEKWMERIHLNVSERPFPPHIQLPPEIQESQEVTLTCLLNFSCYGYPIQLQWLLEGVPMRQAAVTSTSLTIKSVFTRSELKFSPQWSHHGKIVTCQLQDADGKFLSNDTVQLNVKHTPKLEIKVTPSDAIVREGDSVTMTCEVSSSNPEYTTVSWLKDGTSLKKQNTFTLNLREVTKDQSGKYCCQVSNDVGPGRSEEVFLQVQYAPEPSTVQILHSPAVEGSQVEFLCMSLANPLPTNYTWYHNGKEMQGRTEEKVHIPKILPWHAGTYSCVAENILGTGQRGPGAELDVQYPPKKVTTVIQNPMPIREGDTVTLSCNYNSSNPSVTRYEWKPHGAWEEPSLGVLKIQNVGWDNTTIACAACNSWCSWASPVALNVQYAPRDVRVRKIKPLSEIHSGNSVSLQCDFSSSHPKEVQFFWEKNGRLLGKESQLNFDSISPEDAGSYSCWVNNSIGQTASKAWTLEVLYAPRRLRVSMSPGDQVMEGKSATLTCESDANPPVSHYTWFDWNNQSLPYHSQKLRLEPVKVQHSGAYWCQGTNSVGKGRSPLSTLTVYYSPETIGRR

- Kd [1]: 0.26 nM
B1: VM1011 (antibody, V domains shown)
VH: QVQLQESGPGLVKPSQTLSLTCTVSGYVFTSYWLHWIRQPPGKGLEWIGYINPRNDYTEYNRIFKGRVTITADKSTSTAYMELSSLRSEDTAVYYCARRGITTFYWGQG
VL: EIVLTQSPATLSLSPGERATLSCKSSQSVLYSAVEKNYLAWYQQKPGQAPRLLIYWASTRERGIPDRFSGSGSGTDFTLTISRLEPEDFAVYYCKQYLSSWTFGQG
notes: Humanized antibody with human constant region; also called anti-CD22 Mab clone VM1011

- Kd [2]: 2.7 nM
B2: VM1006 (antibody, V domains shown)
VH: QVQLVQSGAEVKKPGASVKVSCKASGYVFTSYWLHWIRQSPSRGLEWLGYINPRNDYTEYNRIFKGRFVFSLDTSVSTAYLQICSLKAEDTAVYYCARRGITTFYWGQG
VL: DIQMTQSPSSLSASVGDRVTITCKSSQSVLYSAVEKNYLAWYQQKPGKAPKLLIYWASTRERGIPDRFSGSGSGTDFTLTISRLEPEDFAVYYCKQYLSSWTFGQG
notes: Humanized antibody with human constant region; also called anti-CD22 Mab clone VM1006
